Assay results from US20100210517A1 (RAPTOR PHARMACEUTICAL, published 2010).

What was measured:
LRP2 CR89 R1088D [1] = molecular target: T1, LRP2 CR89 R1088D (human, UniProt P98164 1022-1105); assay: solid-phase assay on coated CR protein, anti-RAP detection, A450
T1 construct: also called YVWD
Experimental: (§1) Solid phase binding assays-Purified, refolded CR protein (1 μg) was bound to Nunc Maxisorp™ 96-well plates in TBS pH 8 supplemented with 5 mM CaCl₂ (TBSC) overnight at 4° C. Wells were washed with TBSC and then blocked with TBSC containing 2% bovine serum albumin (BSA). […] Control wells contained no added ligand. As an additional control, to determine whether the absence of calcium affected binding, 10 mM EGTA was included in the incubation medium for some samples. […] Excess primary antibody was removed and wells washed before incubation with the secondary antibody, HRP-conjugated goat anti rabbit IgG (Bio-Rad). After washing, TMB substrate solutions (Bio-Rad) were added to detect HRP. Color development was stopped with 1N HCl. Absorption at 450 nm was measured with a microplate spectrophotometer (Molecular Devices). Data were plotted and Kd values derived by non-linear regression with the assumption of single-site binding (GraphPad Prism).
(§2) To test this idea, mutant LRP2 CR89 were prepared in which the native, non-canonical residues at these positions were sequentially substituted with the non-native, canonical residues. As defined above, the A, C, A′, C′ string for LRP2 CR89 is YVWR. Mutants included LRP2 CR89 Y1042W (WVWR), LRP2 CR89 V1047D (YDWR), LRP2 CR89 R1088D (YVWD), LRP2 CR89 V1047D R1088D (YDWD), LRP2 CR89 Y1042W V1047D R1088D (WDWD), LRP2 CR89 Y1042W V1047D (WDWR), LRP2 CR89 Y1042W R1088D (WVWD).

LRP1 CR3-5 [2] = molecular target: T2, LRP1 CR3-5 (human); assay: apparent Kd of the variant for the CR pair used in selection; no unit printed in Table 4, nM per Table 2 and paragraph 292
T2 construct: range 852-973; also called L1 CR3-5
T2 sequence (Q07954 852-973): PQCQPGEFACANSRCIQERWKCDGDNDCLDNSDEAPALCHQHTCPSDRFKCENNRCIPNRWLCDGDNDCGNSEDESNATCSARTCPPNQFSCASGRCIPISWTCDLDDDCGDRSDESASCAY

LRP1 CR3-5 [3] = molecular target: T2, LRP1 CR3-5; assay: solid-phase assay; OD at the highest ligand concentration as percent of the highest OD of all ligands
Experimental: as §1

LRP2 CR89 [4] = molecular target: T3, LRP2 CR89 (human, UniProt P98164 1025-1102); assay: as above
T3 construct: domain: CR89; also called YVWR; L2 CR89; not shown: N-terminal hexahistidine and S-peptide tags of pET30(+)a
T3 sequence (P98164 1025-1102): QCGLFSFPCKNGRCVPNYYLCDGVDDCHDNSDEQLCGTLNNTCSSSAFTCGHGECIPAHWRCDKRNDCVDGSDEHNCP
Experimental: as §1

LRP1 CR3-5 [5] = molecular target: T2, LRP1 CR3-5; assay: solid-phase binding assay, CR protein coated on plate, anti-RAP detection
VLDLR CR6-8 = molecular target: T4, VLDLR CR6-8 (human, UniProt P98155 235-358); assay: as above
T4 construct: range 235-358; also called V CR6-8; not shown: N-terminal hexahistidine and S-peptide tags of pET30(+)a

LRP2 CR89 [6] = molecular target: T3, LRP2 CR89; assay: as above
LRP1 CR3-5 [7] = molecular target: T2, LRP1 CR3-5; assay: solid-phase assay on coated CR protein, single-site non-linear fit
Experimental: Data were plotted and fitted by non-linear regression with the assumption of a single binding site (GraphPad Prism). Kd values with standard deviations were derived from the regression analysis.
as §1

LRP2 CR2728 = molecular target: T5, LRP2 CR2728 (human, UniProt P98164 3552-3631); assay: solid-phase assay on coated CR protein, each ligand at 80 nM, blank-corrected absorbance
T5 construct: domain: CR2728; Its cloning is not described in the methods; not shown: N-terminal hexahistidine and S-peptide tags of pET30(+)a
T5 sequence (looked up): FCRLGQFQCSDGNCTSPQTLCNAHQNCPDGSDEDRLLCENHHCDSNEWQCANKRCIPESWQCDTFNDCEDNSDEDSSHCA
Experimental: (§3) Samples were tested twice, in duplicate, and values combined. Means and standard deviations were then calculated. Blank values obtained from wells incubated in the absence of ligand were used to correct absorbance data.
as §1

MAT CR12 = molecular target: T6, MAT CR12 (human, UniProt Q9Y5Y6 452-524); assay: as above
T6 construct: also called ST14 CR12; matriptase CR12
T6 sequence: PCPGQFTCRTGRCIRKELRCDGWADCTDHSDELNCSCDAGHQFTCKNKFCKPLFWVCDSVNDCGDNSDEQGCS
Experimental: as §3, §1

LRP2 CR3031 = molecular target: T7, LRP2 CR3031 (human, UniProt P98164 3677-3755); assay: as above
T7 construct: domain: CR3031; Its cloning is not described in the methods; not shown: N-terminal hexahistidine and S-peptide tags of pET30(+)a
T7 sequence (P98164 3677-3755): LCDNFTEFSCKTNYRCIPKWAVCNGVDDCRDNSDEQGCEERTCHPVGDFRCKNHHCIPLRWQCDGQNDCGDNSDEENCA
Experimental: as §3, §1

LRP2 CR89 Y1042W V1047D = molecular target: T8, LRP2 CR89 Y1042W V1047D (human, UniProt P98164 1022-1105); assay: solid-phase assay; OD at the highest ligand concentration as percent of the highest OD of all ligands
T8 construct: also called WDWR
T8 chain: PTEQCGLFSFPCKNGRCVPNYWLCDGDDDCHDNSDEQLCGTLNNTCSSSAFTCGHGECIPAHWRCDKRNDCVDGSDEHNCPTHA
Experimental: as §1, §2

LRP2 CR89 V1047D = molecular target: T9, LRP2 CR89 V1047D (human, UniProt P98164 1022-1105); assay: as above
T9 construct: also called YDWR
T9 sequence: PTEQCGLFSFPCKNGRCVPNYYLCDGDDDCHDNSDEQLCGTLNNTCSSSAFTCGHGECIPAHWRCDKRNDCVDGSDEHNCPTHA
Experimental: as §1, §2

LRP2 CR89 V1047D R1088D = molecular target: T10, LRP2 CR89 V1047D R1088D (human, UniProt P98164 1022-1105); assay: as above
T10 construct: also called YDWD
T10 sequence: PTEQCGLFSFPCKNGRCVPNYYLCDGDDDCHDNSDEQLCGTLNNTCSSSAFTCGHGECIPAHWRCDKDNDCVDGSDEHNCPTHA
Experimental: as §1, §2

[8] = molecular target: T11, LRP2 CR89 Y1042W V1047D R1088D (human, UniProt P98164 1022-1105); assay: as above
T11 construct: also called WDWD
T11 chain: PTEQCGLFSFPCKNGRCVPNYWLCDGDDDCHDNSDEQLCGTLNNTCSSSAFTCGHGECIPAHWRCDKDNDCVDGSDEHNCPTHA
Experimental: as §1, §2

LRP2 CR89 R1088D [9] = molecular target: T1, LRP2 CR89 R1088D; assay: as above
Experimental: as §1, §2

LRP2 CR89 Y1042W R1088D = molecular target: T12, LRP2 CR89 Y1042W R1088D (human, UniProt P98164 1022-1105); assay: as above
T12 construct: also called WVWD
T12 chain: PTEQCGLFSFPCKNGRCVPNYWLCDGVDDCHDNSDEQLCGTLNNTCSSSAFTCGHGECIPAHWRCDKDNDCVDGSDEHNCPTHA
Experimental: as §1, §2

LRP2 CR89 [10] = molecular target: T3, LRP2 CR89; assay: as above; remark: listed apart in the source
Experimental: as §1, §2

B1: RAP d3 (wild-type domain 3 of human RAP, amino acids 201-319 of mature RAP) (ligand)
chain: LDRLRRVSHQGYSTEAEFEEPRVIDLWDLEQSANLTDKELEAFREELKHFEAKIEKHNHYQKQLEIAHEKLRHAESVGDGERVSRSREKHALLEGRTKELGYTVKKHLQDLSGRISRAR
notes: Expressed in E. coli from pET30(+)a, Ni-NTA purified; also called wild-type RAP d3; recombinant RAP d3; not shown: N-terminal hexahistidine and S-peptide tags of pET30(+)a
Does B1 bind (LRP2 CR89 R1088D [1])?
Result: no binding (tested: 100 nM)

And the Kd (LRP1 CR3-5 [2])?
The Kd was 16 nM.

What about the “% max” value (LRP1 CR3-5 [3]) of the same binder?
Its value is 76%.

What about the “% max” value (LRP2 CR89 [4]) of the same binder?
Its value is 5%.

And the Kd (LRP1 CR3-5 [5])?
Its Kd is 11 nM.

What about the Kd (VLDLR CR6-8) of the same binder?
The Kd was greater than 300 nM.

And the Kd (LRP2 CR89 [6])?
The Kd was greater than 300 nM.

What about the Kd (LRP1 CR3-5 [7]) of the same binder?
Its Kd is 16 nM.

Does B1 bind (LRP2 CR2728)?
Result: no binding (tested: 80 nM)

Does B1 bind (MAT CR12)?
Result: no binding (tested: 80 nM)

Does B1 bind (LRP2 CR3031)?
Result: no binding (tested: 80 nM)

And the “% max bind” value (LRP2 CR89 Y1042W V1047D)?
The value was 11%.

And the “% max bind” value (LRP2 CR89 V1047D)?
The value was 6%.

What about the “% max bind” value (LRP2 CR89 V1047D R1088D) of the same binder?
Its value is 6%.

And the “% max bind” value [8]?
Its value is 15%.

What about the “% max bind” value (LRP2 CR89 R1088D [9]) of the same binder?
Its value is 7%.

And the “% max bind” value (LRP2 CR89 Y1042W R1088D)?
The value was 16%.

What about the “% max bind” value (LRP2 CR89 [10]) of the same binder?
Its value is 7%.
